This is an account of results in patent US20050058643A1 (APITOPE TECHNOLOGY BRISTOL, published 2005).

This test has as its target T1, HLA:DR2 (DRB1*1501) MHC Class II molecule (human).
T1 construct: whole, on cells
Briefly: conclusion drawn from presentation and tolerance experiments (fixed HLA-DR2+ APC; HLA:DR2 transgenic mice); no direct binding assay.

B1: MBP peptide 140-154 (peptide)
peptide: GFKGVDAQGTLSKIF
notes: also called APITOPE-MS-6
Consider B1, for which the binding result is “binds”.
